Data published in paper PMC4762007, “Insight into Coenzyme A cofactor binding and the mechanism of acyl-transfer in an acylating aldehyde dehydrogenase from Clostridium phytofermentans” (Scientific Reports, 2016).
Values belong to the molecule of their own block, whether it stands above or below them.

How the values were obtained:
Cphy1178(20–462) [1] = molecular target: T1, Cphy1178(20–462) (Lachnoclostridium phytofermentans, UniProt A9KN57); experiment: LC-MS detection of propionyl-CoA; type: biochemical; conditions: 100 µM CoA, 75 µM NAD+, 10 mM propionaldehyde, 100 mM KCl, pH 8.0, room temperature
T1 construct: gene Cphy_1178; E. coli BL21(DE3), pET28a; tag state not clearly stated; tetramer 4 x 47,452 Da; also misprinted as 20-426
T1 sequence (A9KN57 20-462): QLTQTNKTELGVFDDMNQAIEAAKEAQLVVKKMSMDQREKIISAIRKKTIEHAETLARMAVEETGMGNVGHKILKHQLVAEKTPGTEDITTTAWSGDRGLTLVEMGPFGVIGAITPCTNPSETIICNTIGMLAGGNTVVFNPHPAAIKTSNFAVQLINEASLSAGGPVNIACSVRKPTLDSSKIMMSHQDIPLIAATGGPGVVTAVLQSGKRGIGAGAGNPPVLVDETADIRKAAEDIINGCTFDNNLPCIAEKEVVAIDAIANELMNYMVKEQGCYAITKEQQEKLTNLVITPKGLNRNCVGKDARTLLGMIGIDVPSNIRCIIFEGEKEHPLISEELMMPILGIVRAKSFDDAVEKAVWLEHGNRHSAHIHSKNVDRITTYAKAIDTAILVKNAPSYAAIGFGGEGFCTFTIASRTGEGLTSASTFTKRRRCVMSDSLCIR

Cphy1178(20–462) [2] = molecular target: T1, Cphy1178(20–462); experiment: NADH formation; type: biochemical; conditions: substrate inhibition; 0.66 mM NAD+, 100 mM KCl, 10 mM 2-mercaptoethanol, no CoA, pH 8.0, 21 °C
[3] = molecular target: Cphy1178(20–462), acylating aldehyde dehydrogenase from the Clostridium phytofermentans fucose/rhamnose utilisation BMC, N-terminal truncation (Clostridium phytofermentans); experiment: native MS; solution-phase disassembly: tetramer disrupted by addition of 40% methanol (v/v) prior to MS analysis; tetramer to dimers and monomers
[4] = molecular target: Cphy1178(20–462), acylating aldehyde dehydrogenase from the Clostridium phytofermentans fucose/rhamnose utilisation BMC, N-terminal truncation (Clostridium phytofermentans); experiment: native MS; nano-ESI ion-mobility MS (Synapt G2); protein buffer-exchanged into 100 mM ammonium acetate pH 7.0; tetramer
[5] = molecular target: Cphy1178(20–462), acylating aldehyde dehydrogenase from the Clostridium phytofermentans fucose/rhamnose utilisation BMC, N-terminal truncation (Clostridium phytofermentans); experiment: crystal structure; X-ray, space group I 41 2 2, one chain in the asymmetric unit; tetramer generated by crystal symmetry (D2); crystals from 0.1 M sodium acetate pH 4.7, 1.8 M ammonium sulphate, soaked with 10 mM NAD+
Cphy1178(20–462) [6] = molecular target: T1, Cphy1178(20–462); experiment: LC-MS; type: biochemical; conditions: 100 µM CoA, 75 µM NAD+, 10 mM propionaldehyde, 100 mM KCl, pH 8.0, room temperature
purified protein [7] = substrate: CCC=O; experiment: purified protein; type: biochemical, Lachnoclostridium phytofermentans; conditions: 0.66 mM NAD+, 100 mM KCl, 10 mM 2-mercaptoethanol, no CoA, pH 8.0, 21 °C
purified protein [8] = substrate: CCCCC=O; experiment: purified protein; type: biochemical, Lachnoclostridium phytofermentans; conditions: 0.66 mM NAD+, 100 mM KCl, 10 mM 2-mercaptoethanol, no CoA, pH 8.0, 21 °C
purified protein [9] = substrate: CC=O; experiment: purified protein; type: biochemical, Lachnoclostridium phytofermentans; conditions: 0.66 mM NAD+, 100 mM KCl, 10 mM 2-mercaptoethanol, no CoA, pH 8.0, 21 °C
purified protein [10] = substrate: CCCC=O; experiment: purified protein; type: biochemical, Lachnoclostridium phytofermentans; conditions: 0.66 mM NAD+, 100 mM KCl, 10 mM 2-mercaptoethanol, no CoA, pH 8.0, 21 °C
purified protein [11] = substrate: CCCCCC=O; experiment: purified protein; conditions: 0.66 mM NAD+, 100 mM KCl, 10 mM 2-mercaptoethanol, no CoA, pH 8.0, 21 °C

Molecule: CC(C)(COP(=O)(O)OP(=O)(O)OC[C@H]1O[C@@H](n2cnc3c(N)ncnc32)[C@H](O)[C@@H]1OP(=O)(O)O)[C@@H](O)C(=O)NCCC(=O)NCCS [CoA]
LC-MS detection of propionyl-CoA (Cphy1178(20–462) [1]): reaction mixtures containing NAD^+ and CoA

Ki (Cphy1178(20–462) [2]): 23.52 ± 1.28 mM
Molecule: CCCCCC=O [Hexanaldehyde]

Ki (Cphy1178(20–462) [2]): 12.61 ± 0.46 mM
Molecule: CCCCC=O [Pentanaldehyde]

stoichiometry N [3]: 2 | stoichiometry N [4]: 4 | stoichiometry N [5]: 4
Molecule: Cphy1178(20–462), acylating aldehyde dehydrogenase from the Clostridium phytofermentans fucose/rhamnose utilisation BMC, N-terminal truncation (enzyme)

Molecule: CCC(=O)SCCNC(=O)CCNC(=O)[C@H](O)C(C)(C)COP(=O)(O)OP(=O)(O)OC[C@H]1O[C@@H](n2cnc3c(N)ncnc32)[C@H](O)[C@@H]1OP(=O)(O)O [propionyl-CoA]
LC-MS (Cphy1178(20–462) [6]): LC-MS analysis confirmed the presence of the propionyl-CoA product

Ki (Cphy1178(20–462) [2]): 17.31 ± 0.46 mM
Molecule: CCC=O [Propionaldehyde]

B1: Cphy1178(20–462) (Lachnoclostridium phytofermentans ISDg) (protein)
chain: T1 sequence (A9KN57 20-462)
notes: E. coli BL21(DE3), pET28a; tag state not clearly stated; tetramer 4 x 47,452 Da; also misprinted as 20-426
Km (purified protein [7]): 820 ± 20 µM | kcat (purified protein [7]): 3.45 ± 0.03 s⁻¹ | kcat/Km (purified protein [7]): 4210 M⁻¹ s⁻¹ | Km (purified protein [8]): 2200 ± 700 µM | kcat (purified protein [8]): 5.44 ± 0.1 s⁻¹ | kcat/Km (purified protein [8]): 2470 M⁻¹ s⁻¹ | Km (purified protein [9]): 5160 ± 100 µM | kcat (purified protein [9]): 1.62 ± 0.02 s⁻¹ | kcat/Km (purified protein [9]): 310 M⁻¹ s⁻¹ | Km (purified protein [10]): 1740 ± 70 µM | kcat (purified protein [10]): 3.44 ± 0.7 s⁻¹ | kcat/Km (purified protein [10]): 1980 M⁻¹ s⁻¹ | Km (purified protein [11]): 2900 ± 100 µM | kcat (purified protein [11]): 5.61 s⁻¹ | kcat/Km (purified protein [11]): 1930 M⁻¹ s⁻¹
